This is an account of results in the supplement of paper PMC9112550, “Optimization of the antimicrobial peptide Bac7 by deep mutational scanning” (BMC Biology, 2022).

The data set deals with Escherichia coli TOP10. In words: shrunken log2 fold change of peptide-encoding DNA abundance (4.5 h post-induction vs induction); higher = less antimicrobial activity (less host growth inhibition). To be noted: time post-induction: 4.5 h; library: site-saturation at positions 5, 18, 19, 20.
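Note: peptides expressed intracellularly from a pBAD plasmid library in pooled LB shake-flask culture, induced with 0.3% L-arabinose, DNA abundance read by NGS, three biological replicates, DESeq2 with apeglm shrinkage.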

On to RRIRSRPPRLPRPRPRPCEQPRP, for which the “shrunken log2 fold change” value came to 0.000312. In the case of RRIRKRPPRLPRPRPRPFNPPRP, the “shrunken log2 fold change” value is -0.0407.

As to RRIRTRPPRLPRPRPRPAATPRP, the “shrunken log2 fold change” value came out at 0.247. With RRIRYRPPRLPRPRPRPWYNPRP, the “shrunken log2 fold change” value was -0.764. RRIRRRPPRLPRPRPRPIKGPRP: the “shrunken log2 fold change” value amounted to 0.174. In the case of RRIRHRPPRLPRPRPRPVHQPRP, the “shrunken log2 fold change” value came to 0.0507. For RRIRLRPPRLPRPRPRPTHCPRP, the “shrunken log2 fold change” value was -0.0342. Consider RRIRMRPPRLPRPRPRPMDIPRP, for which the “shrunken log2 fold change” value amounted to 0.468.

Consider RRIRGRPPRLPRPRPRPQFIPRP, for which the “shrunken log2 fold change” value was 0.0876. As for RRIRNRPPRLPRPRPRPNCQPRP, the “shrunken log2 fold change” value is -0.182. For RRIRQRPPRLPRPRPRPKEAPRP, the “shrunken log2 fold change” value turned out to be 0.107. On to RRIRMRPPRLPRPRPRPFAFPRP, for which the “shrunken log2 fold change” value came out at 0.0579. For RRIRNRPPRLPRPRPRPDYLPRP, the “shrunken log2 fold change” value is -0.142.

Take RRIRPRPPRLPRPRPRPYFPPRP: the “shrunken log2 fold change” value is -0.26. As for RRIRCRPPRLPRPRPRPMSLPRP, the “shrunken log2 fold change” value is -0.163. Turning to RRIRGRPPRLPRPRPRPYCIPRP, the “shrunken log2 fold change” value is 0.174.

For RRIRDRPPRLPRPRPRPMLWPRP, the “shrunken log2 fold change” value is 0.015.

For RRIRMRPPRLPRPRPRPATFPRP, the “shrunken log2 fold change” value came to 0.376. To RRIRFRPPRLPRPRPRPWFWPRP belongs -0.285.

For the sequence RRIRGRPPRLPRPRPRPTCWPRP, the “shrunken log2 fold change” value came to 0.764. The same measure for RRIRKRPPRLPRPRPRPGQYPRP: 0.0797.

For RRIRPRPPRLPRPRPRPQFIPRP, the “shrunken log2 fold change” value is -0.653.

With RRIRIRPPRLPRPRPRPPPWPRP, the “shrunken log2 fold change” value came to 0.508. The same measure for RRIRPRPPRLPRPRPRPTLTPRP: 1.22; for RRIRVRPPRLPRPRPRPQYHPRP: -0.648.

With RRIRVRPPRLPRPRPRPPDWPRP, the “shrunken log2 fold change” value came to 0.46. RRIRERPPRLPRPRPRPDLCPRP: the “shrunken log2 fold change” value is -0.00931. Consider RRIRIRPPRLPRPRPRPMECPRP, for which the “shrunken log2 fold change” value was -0.153. Regarding RRIRPRPPRLPRPRPRPKDYPRP, the “shrunken log2 fold change” value was -0.0674. For RRIRFRPPRLPRPRPRPRRLPRP, the “shrunken log2 fold change” value was found to be 0.462. To RRIRSRPPRLPRPRPRPSHYPRP belongs -1.44; to RRIRLRPPRLPRPRPRPFKDPRP, -0.023; to RRIRKRPPRLPRPRPRPDQSPRP, 0.0875. RRIRHRPPRLPRPRPRPWNWPRP: the “shrunken log2 fold change” value is -0.0135. For the sequence RRIRGRPPRLPRPRPRPPQPPRP, the “shrunken log2 fold change” value is 1.03. To RRIRWRPPRLPRPRPRPSYWPRP belongs -0.415; to RRIRDRPPRLPRPRPRPPDNPRP, -0.272; to RRIRNRPPRLPRPRPRPNPPPRP, 0.143. RRIRHRPPRLPRPRPRPIALPRP: the “shrunken log2 fold change” value is -0.355. Regarding RRIRMRPPRLPRPRPRPTRGPRP, the “shrunken log2 fold change” value is 1.57. On to RRIRARPPRLPRPRPRPKIPPRP, for which the “shrunken log2 fold change” value was determined as 0.174. For the sequence RRIRMRPPRLPRPRPRPPQAPRP, the “shrunken log2 fold change” value was 1.06. Turning to RRIRSRPPRLPRPRPRPPRQPRP, the “shrunken log2 fold change” value came to 0.389.

As to RRIRPRPPRLPRPRPRPFSSPRP, the “shrunken log2 fold change” value is -0.322. With RRIRDRPPRLPRPRPRPWAVPRP, the “shrunken log2 fold change” value was -0.066. In the case of RRIRYRPPRLPRPRPRPRMVPRP, the “shrunken log2 fold change” value was -0.475. To RRIRKRPPRLPRPRPRPHMMPRP belongs 0.217; to RRIRSRPPRLPRPRPRPIDVPRP, -0.0081; to RRIRSRPPRLPRPRPRPNEGPRP, -0.0691. On to RRIRARPPRLPRPRPRPPKFPRP, for which the “shrunken log2 fold change” value is 0.121. To RRIRKRPPRLPRPRPRPLHRPRP belongs 0.36; to RRIRVRPPRLPRPRPRPCWRPRP, 0.0437; to RRIRGRPPRLPRPRPRPWVEPRP, 0.129. To RRIRCRPPRLPRPRPRPPHTPRP belongs 0.824. As for RRIRVRPPRLPRPRPRPSPRPRP, the “shrunken log2 fold change” value was 0.415. In the case of RRIRRRPPRLPRPRPRPIEKPRP, the “shrunken log2 fold change” value was determined as 0.149. Regarding RRIRRRPPRLPRPRPRPLWQPRP, the “shrunken log2 fold change” value was found to be 0.318. For RRIRDRPPRLPRPRPRPCHHPRP, the “shrunken log2 fold change” value is -0.0426. As to RRIRYRPPRLPRPRPRPKEVPRP, the “shrunken log2 fold change” value turned out to be 0.0274. For the sequence RRIRQRPPRLPRPRPRPSGNPRP, the “shrunken log2 fold change” value is -0.323. The same measure for RRIRSRPPRLPRPRPRPCKMPRP: -0.215.

In the case of RRIRWRPPRLPRPRPRPYGYPRP, the “shrunken log2 fold change” value was -0.345. RRIRMRPPRLPRPRPRPQSDPRP: the “shrunken log2 fold change” value is -0.00296. To RRIRARPPRLPRPRPRPLENPRP belongs 0.595; to RRIRPRPPRLPRPRPRPWVAPRP, 0.014.

For the sequence RRIRGRPPRLPRPRPRPGMQPRP, the “shrunken log2 fold change” value is 1.15. To RRIRPRPPRLPRPRPRPRCDPRP belongs 0.0398; to RRIRHRPPRLPRPRPRPHQLPRP, -0.196; to RRIRLRPPRLPRPRPRPYDAPRP, -0.211. On to RRIRIRPPRLPRPRPRPLWYPRP, for which the “shrunken log2 fold change” value was -0.551.

Take RRIRARPPRLPRPRPRPWRPPRP: the “shrunken log2 fold change” value was found to be 0.348. For the sequence RRIRDRPPRLPRPRPRPYWRPRP, the “shrunken log2 fold change” value was -0.0818. The same measure for RRIRQRPPRLPRPRPRPYANPRP: -0.264; for RRIRPRPPRLPRPRPRPGIKPRP: -0.0194; for RRIRIRPPRLPRPRPRPKHNPRP: -0.349.

Take RRIRERPPRLPRPRPRPHYVPRP: the “shrunken log2 fold change” value is -0.0222. With RRIRERPPRLPRPRPRPYTRPRP, the “shrunken log2 fold change” value is -0.252.

Turning to RRIRTRPPRLPRPRPRPWPVPRP, the “shrunken log2 fold change” value was -0.105. The same measure for RRIRCRPPRLPRPRPRPCQCPRP: -0.208; for RRIRTRPPRLPRPRPRPDGWPRP: 0.468. The same measure for RRIRMRPPRLPRPRPRPMAQPRP: -0.0018; for RRIRFRPPRLPRPRPRPGIMPRP: -0.124; for RRIRHRPPRLPRPRPRPNPKPRP: -0.0127.

Turning to RRIRVRPPRLPRPRPRPWNMPRP, the “shrunken log2 fold change” value was -0.192. The same measure for RRIRKRPPRLPRPRPRPGQRPRP: 0.328; for RRIRDRPPRLPRPRPRPLCRPRP: -0.0528.

Consider RRIRRRPPRLPRPRPRPLKWPRP, for which the “shrunken log2 fold change” value is -0.107.

In the case of RRIRARPPRLPRPRPRPGVPPRP, the “shrunken log2 fold change” value worked out at 0.727. The same measure for RRIRWRPPRLPRPRPRPALDPRP: 0.553; for RRIRVRPPRLPRPRPRPNGWPRP: 0.0568; for RRIRYRPPRLPRPRPRPNTAPRP: -0.0149. Consider RRIRNRPPRLPRPRPRPNRAPRP, for which the “shrunken log2 fold change” value is 0.0272. As for RRIRYRPPRLPRPRPRPQDDPRP, the “shrunken log2 fold change” value was -0.0017. Turning to RRIRERPPRLPRPRPRPDTIPRP, the “shrunken log2 fold change” value is -0.06.

Turning to RRIRYRPPRLPRPRPRPFMQPRP, the “shrunken log2 fold change” value is -0.403. Regarding RRIRRRPPRLPRPRPRPMIVPRP, the “shrunken log2 fold change” value turned out to be 0.00521. For the sequence RRIRFRPPRLPRPRPRPAQSPRP, the “shrunken log2 fold change” value came out at 0.0902. The same measure for RRIRHRPPRLPRPRPRPFDVPRP: -0.168.

Take RRIRDRPPRLPRPRPRPGTYPRP: the “shrunken log2 fold change” value was -0.227. Consider RRIRRRPPRLPRPRPRPASQPRP, for which the “shrunken log2 fold change” value was determined as 0.0789. On to RRIRPRPPRLPRPRPRPGIEPRP, for which the “shrunken log2 fold change” value is -0.00839. Regarding RRIRGRPPRLPRPRPRPEDNPRP, the “shrunken log2 fold change” value came to 0.892. Turning to RRIRVRPPRLPRPRPRPKWNPRP, the “shrunken log2 fold change” value was -0.172. The same measure for RRIRFRPPRLPRPRPRPCRFPRP: -0.607; for RRIRHRPPRLPRPRPRPVRNPRP: 0.0796. Consider RRIRVRPPRLPRPRPRPHYTPRP, for which the “shrunken log2 fold change” value was -0.169. Regarding RRIRQRPPRLPRPRPRPNKCPRP, the “shrunken log2 fold change” value was -0.145. For the sequence RRIRARPPRLPRPRPRPIRGPRP, the “shrunken log2 fold change” value was 0.0372. On to RRIRFRPPRLPRPRPRPQSVPRP, for which the “shrunken log2 fold change” value is -0.0251.

In the case of RRIRLRPPRLPRPRPRPDREPRP, the “shrunken log2 fold change” value is 0.0246. With RRIRSRPPRLPRPRPRPEHYPRP, the “shrunken log2 fold change” value is -0.132. As to RRIRRRPPRLPRPRPRPQIGPRP, the “shrunken log2 fold change” value amounted to 0.164. For RRIRGRPPRLPRPRPRPDNGPRP, the “shrunken log2 fold change” value was -0.0263. Consider RRIRWRPPRLPRPRPRPCMRPRP, for which the “shrunken log2 fold change” value was 0.506. As for RRIRCRPPRLPRPRPRPQRWPRP, the “shrunken log2 fold change” value came out at 0.294. Regarding RRIRWRPPRLPRPRPRPLAFPRP, the “shrunken log2 fold change” value was found to be 0.153.

As to RRIRVRPPRLPRPRPRPQFEPRP, the “shrunken log2 fold change” value was -0.119. Turning to RRIRPRPPRLPRPRPRPWTKPRP, the “shrunken log2 fold change” value turned out to be 0.0459. For the sequence RRIRNRPPRLPRPRPRPCHDPRP, the “shrunken log2 fold change” value is -0.0458.

RRIRERPPRLPRPRPRPLEMPRP: the “shrunken log2 fold change” value is -0.216. Take RRIRCRPPRLPRPRPRPMMGPRP: the “shrunken log2 fold change” value turned out to be 0.0355. Turning to RRIRERPPRLPRPRPRPDMSPRP, the “shrunken log2 fold change” value was -0.064. On to RRIRRRPPRLPRPRPRPKHKPRP, for which the “shrunken log2 fold change” value amounted to 0.339. Turning to RRIRARPPRLPRPRPRPVKAPRP, the “shrunken log2 fold change” value amounted to 0.0269. Consider RRIRERPPRLPRPRPRPYSGPRP, for which the “shrunken log2 fold change” value is -0.218.
